System: Escherichia coli TOP10
Assay: shrunken log2 fold change of peptide-encoding DNA abundance (4.5 h post-induction vs induction); higher = less antimicrobial activity (less host growth inhibition)
Details: time post-induction: 4.5 h; library: site-saturation at positions 5, 18, 19, 20
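Further: peptides expressed intracellularly from a pBAD plasmid library in pooled LB shake-flask culture, induced with 0.3% L-arabinose, DNA abundance read by NGS, three biological replicates, DESeq2 with apeglm shrinkage.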

Sequence | shrunken log2 fold change
RRIRQRPPRLPRPRPRPNTDPRP | -0.166
RRIRERPPRLPRPRPRPKPVPRP | 0.173
RRIRPRPPRLPRPRPRPTMNPRP | -0.0529
RRIRGRPPRLPRPRPRPWELPRP | 0.136
RRIRKRPPRLPRPRPRPVNEPRP | -0.00608
RRIRWRPPRLPRPRPRPKVLPRP | 0.155
RRIRVRPPRLPRPRPRPSHVPRP | -0.0313
RRIRLRPPRLPRPRPRPTVRPRP | -0.107
RRIRERPPRLPRPRPRPQNFPRP | -0.486
RRIRHRPPRLPRPRPRPWIIPRP | 0.00956
RRIRSRPPRLPRPRPRPSKFPRP | -0.779
RRIRKRPPRLPRPRPRPMGSPRP | 0.0567
RRIRSRPPRLPRPRPRPEDVPRP | 0.183
RRIRCRPPRLPRPRPRPIMVPRP | -0.115
RRIRIRPPRLPRPRPRPTDHPRP | -0.368
RRIRCRPPRLPRPRPRPRRKPRP | 0.399
RRIRVRPPRLPRPRPRPCAQPRP | -0.186
RRIRGRPPRLPRPRPRPIHNPRP | -0.268
RRIRDRPPRLPRPRPRPGSSPRP | 0.0783
RRIRLRPPRLPRPRPRPWAQPRP | 0.249
RRIRTRPPRLPRPRPRPNQVPRP | 0.00376
RRIRLRPPRLPRPRPRPRPSPRP | 0.435
RRIRRRPPRLPRPRPRPIACPRP | 0.0283
RRIRPRPPRLPRPRPRPDEYPRP | -0.015
RRIRFRPPRLPRPRPRPVRGPRP | 0.576

Sequence | shrunken log2 fold change
RRIRMRPPRLPRPRPRPIHCPRP | -0.105
RRIRMRPPRLPRPRPRPVCYPRP | -0.21
RRIRIRPPRLPRPRPRPRNQPRP | -0.542
RRIRPRPPRLPRPRPRPGGSPRP | 0.166
RRIRIRPPRLPRPRPRPSVYPRP | -0.277
RRIRFRPPRLPRPRPRPRKIPRP | 0.0429
RRIRNRPPRLPRPRPRPRHIPRP | -0.0233
RRIRGRPPRLPRPRPRPVYEPRP | 0.271
RRIRTRPPRLPRPRPRPDLYPRP | 0.0261
RRIRSRPPRLPRPRPRPYSTPRP | -1.05
RRIRKRPPRLPRPRPRPGREPRP | 0.913
RRIRGRPPRLPRPRPRPYGVPRP | -0.128
RRIRGRPPRLPRPRPRPSITPRP | 0.0975
RRIRERPPRLPRPRPRPAFRPRP | -0.0607
RRIRQRPPRLPRPRPRPVMCPRP | -0.119
RRIRYRPPRLPRPRPRPDRKPRP | -0.157
RRIRWRPPRLPRPRPRPGPHPRP | -0.0302
RRIRMRPPRLPRPRPRPKKRPRP | 2.01
RRIRHRPPRLPRPRPRPYFDPRP | -0.422
RRIRPRPPRLPRPRPRPPVTPRP | 0.147
RRIRFRPPRLPRPRPRPGDAPRP | 0.158
RRIRDRPPRLPRPRPRPMTWPRP | 0.000751
RRIRDRPPRLPRPRPRPMPRPRP | 0.26
RRIRPRPPRLPRPRPRPEDQPRP | 0.106
RRIRGRPPRLPRPRPRPSVLPRP | 0.389

Sequence | shrunken log2 fold change
RRIRTRPPRLPRPRPRPHCAPRP | -0.0401
RRIRYRPPRLPRPRPRPKADPRP | 0.0864
RRIRFRPPRLPRPRPRPQWYPRP | -0.981
RRIRLRPPRLPRPRPRPYWWPRP | 0.0346
RRIRMRPPRLPRPRPRPHCEPRP | -0.0828
RRIRDRPPRLPRPRPRPNQEPRP | -0.0564
RRIRYRPPRLPRPRPRPTPTPRP | 0.451
RRIRQRPPRLPRPRPRPFFKPRP | -0.132
RRIRNRPPRLPRPRPRPPGNPRP | 0.532
RRIRVRPPRLPRPRPRPSSWPRP | -0.062
RRIRTRPPRLPRPRPRPYMKPRP | -0.0199
RRIRDRPPRLPRPRPRPEPYPRP | 0.118
RRIRLRPPRLPRPRPRPGWEPRP | 0.14
RRIRYRPPRLPRPRPRPEINPRP | 0.0373
RRIRLRPPRLPRPRPRPINKPRP | -0.617
RRIRARPPRLPRPRPRPIFSPRP | -0.00994
RRIRSRPPRLPRPRPRPSDWPRP | 0.0164
RRIRHRPPRLPRPRPRPRIWPRP | 0.242
RRIRLRPPRLPRPRPRPKGCPRP | -0.0474
RRIRHRPPRLPRPRPRPSCHPRP | -0.509
RRIRFRPPRLPRPRPRPNWWPRP | -0.0248
RRIRFRPPRLPRPRPRPYDCPRP | 0.0187
RRIRKRPPRLPRPRPRPDGDPRP | 3.21
RRIRTRPPRLPRPRPRPLGDPRP | -0.109
RRIRDRPPRLPRPRPRPFWYPRP | -0.167

Sequence | shrunken log2 fold change
RRIRYRPPRLPRPRPRPQPQPRP | -0.0927
RRIRQRPPRLPRPRPRPTNNPRP | -0.547
RRIRFRPPRLPRPRPRPPDRPRP | 0.128
RRIRQRPPRLPRPRPRPNWLPRP | 0.259
RRIRTRPPRLPRPRPRPPCGPRP | 0.4
RRIRMRPPRLPRPRPRPHTGPRP | 0.0957
RRIRGRPPRLPRPRPRPMTKPRP | 0.524
RRIRRRPPRLPRPRPRPQGLPRP | 0.143
RRIRDRPPRLPRPRPRPFTHPRP | -0.0968
RRIRHRPPRLPRPRPRPRQDPRP | -0.189
RRIRGRPPRLPRPRPRPCLNPRP | 0.165
RRIRNRPPRLPRPRPRPAADPRP | 0.342
RRIRNRPPRLPRPRPRPWSSPRP | -0.0666
RRIRPRPPRLPRPRPRPDYIPRP | -1.2
RRIRKRPPRLPRPRPRPHYSPRP | -0.257
RRIRGRPPRLPRPRPRPWHWPRP | 0.424
RRIRKRPPRLPRPRPRPSNDPRP | 0.257
RRIRDRPPRLPRPRPRPTYAPRP | 0.0176
RRIRHRPPRLPRPRPRPAGLPRP | 0.269
RRIRQRPPRLPRPRPRPTIEPRP | 0.0419
RRIRNRPPRLPRPRPRPVTHPRP | 0.0124
RRIRLRPPRLPRPRPRPLEMPRP | 0.203
RRIRMRPPRLPRPRPRPAWNPRP | 0.43
RRIRNRPPRLPRPRPRPAEYPRP | 0.0714
RRIRERPPRLPRPRPRPYSPPRP | -0.0774

Sequence | shrunken log2 fold change
RRIRQRPPRLPRPRPRPHMQPRP | -0.288
RRIRLRPPRLPRPRPRPDEWPRP | -0.0118
RRIRFRPPRLPRPRPRPDMEPRP | -0.16
RRIRSRPPRLPRPRPRPRVCPRP | 0.366
RRIRFRPPRLPRPRPRPHGPPRP | 0.11
RRIRTRPPRLPRPRPRPKAVPRP | 0.26
RRIRFRPPRLPRPRPRPQAAPRP | 1.04
RRIRERPPRLPRPRPRPMGKPRP | -0.01
RRIRYRPPRLPRPRPRPLCHPRP | -1.18
RRIRMRPPRLPRPRPRPKWIPRP | -0.124
RRIRYRPPRLPRPRPRPKRRPRP | 0.0144
RRIRYRPPRLPRPRPRPMYKPRP | -0.28
RRIRFRPPRLPRPRPRPVSDPRP | 0.00637
RRIRSRPPRLPRPRPRPDTMPRP | -0.462
RRIRIRPPRLPRPRPRPLCAPRP | -0.183
RRIRPRPPRLPRPRPRPMMNPRP | 0.03
RRIRLRPPRLPRPRPRPWWKPRP | -0.198
RRIRMRPPRLPRPRPRPVDEPRP | -0.00101
RRIRGRPPRLPRPRPRPIMAPRP | 0.401
RRIRTRPPRLPRPRPRPFKEPRP | -0.125
RRIRPRPPRLPRPRPRPYGAPRP | -0.306
RRIRVRPPRLPRPRPRPRLFPRP | 0.447
RRIRERPPRLPRPRPRPAYFPRP | 0.019
RRIRFRPPRLPRPRPRPNVFPRP | -0.108
RRIRMRPPRLPRPRPRPWGHPRP | 0.0533
